Results published in patent US20130296252A1 (University of Texas, published 2013).
Bridge positions count the residues as written; N and C are the ends. Ends that are not written are not given here.

T1: human MUC18 on human melanoma cell lines (human, UniProt P43121 24-646)
T1 construct: whole, on cells; also called MCAM; CD146
T1 sequence (looked up): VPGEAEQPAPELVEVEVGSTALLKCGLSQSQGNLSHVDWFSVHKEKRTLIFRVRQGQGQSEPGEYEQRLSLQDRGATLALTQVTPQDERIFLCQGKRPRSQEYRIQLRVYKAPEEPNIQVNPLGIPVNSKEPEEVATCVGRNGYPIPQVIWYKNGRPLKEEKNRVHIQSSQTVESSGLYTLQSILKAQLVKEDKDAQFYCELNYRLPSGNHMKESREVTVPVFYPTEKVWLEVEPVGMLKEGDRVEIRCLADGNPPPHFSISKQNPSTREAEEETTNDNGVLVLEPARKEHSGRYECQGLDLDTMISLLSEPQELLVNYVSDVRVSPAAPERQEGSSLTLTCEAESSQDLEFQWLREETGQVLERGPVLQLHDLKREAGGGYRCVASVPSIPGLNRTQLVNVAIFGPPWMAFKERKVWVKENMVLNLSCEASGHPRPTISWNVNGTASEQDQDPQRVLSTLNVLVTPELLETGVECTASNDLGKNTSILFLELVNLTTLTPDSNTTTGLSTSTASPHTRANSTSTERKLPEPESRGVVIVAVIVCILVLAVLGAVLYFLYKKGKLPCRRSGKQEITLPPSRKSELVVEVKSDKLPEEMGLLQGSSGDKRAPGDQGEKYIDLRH

B1: CLFMRLAWC-phage (phage displaying the cyclic peptide CLFMRLAWC) (peptide)
peptide: CLFMRLAWC
modifications: disulfide 1-9 (inferred); also: displayed on phage
notes: also called phage clone displaying the peptide motif Arg-Met-Phe-Leu
B2: mouse MUC18 (melanoma cell adhesion molecule) (receptor, UniProt Q8R2Y2 24-648, looked up)
chain: VPGEEKQPVPTPDLVEAEVGSTALLKCGPSRASGNFSQVDWFLIHKERQILIFRVHQGKGQREPGEYEHRLSLQDSVATLALSHVTPHDERMFLCKSKRPRLQDHYVELQVFKAPEEPTIQANVVGIHVDRQELREVATCVGRNGYPIPQVLWYKNSLPLQEEENRVHIQSSQIVESSGLYTLKSVLSARLVKEDKDAQFYCELSYRLPSGNHMKESKEVTVPVFYPAEKVWVEVEPVGLLKEGDHVTIRCLTDGNPQPHFTINKKDPSTGEMEEESTDENGLLSLEPAEKHHSGLYQCQSLDLETTITLSSDPLELLVNYVSDVQVNPTAPEVQEGESLTLTCEAESNQDLEFEWLRDKTGQLLGKGPVLQLNNVRREAGGRYLCMASVPRVPGLNRTQLVSVGIFGSPWMALKERKVWVQENAVLNLSCEASGHPQPTISWNVNGSATEWNPDPQTVVSTLNVLVTPELLETGAECTASNSLGSNTTTIVLKLVTLTTLIPDSSQTTGLSTLTVSPHTRANSTSTEKKLPQPESKGVVIVAVIVCTLVLAVLGAALYFFYKKGKLPCGRSGKQEITLPPTRKSEFVVEVKSDKLPEEMALLQGSNGDKRAPGDQGEKYIDLRH
notes: whole, on cells; Present on B16 melanoma cells before and after co-culture with B-1 lymphocytes; In the immunocapture assay it was captured from cell membrane extracts by anti-MUC18 antibody; In Western blot and co-IP it came from cell membrane extracts; also called MCAM; native mouse MUC18
B3: H111-S120 phage (phage clone displaying the mouse MUC18-derived peptide HDERMFLCKS, residues H111-S120 of MUC18) (peptide)
peptide: HDERMFLCKS
notes: also called MUC18-derived phage; MUC18-derived (H111-S120) phage
B4: H111-S120 phage with Ser120 mutated (alanine scanning) (peptide)
peptide: HDERMFLCKA
notes: Numbering counts on mouse MUC18
B5: H111-S120 phage with Cys118 mutated (alanine scanning) (peptide)
peptide: HDERMFLAKS
notes: as for B4
B6: H111-S120 phage with Arg114 mutated (alanine scanning) (peptide)
peptide: HDEAMFLCKS
notes: as for B4
B7: H111-S120 phage with Lys119 mutated (alanine scanning) (peptide)
peptide: HDERMFLCAS
notes: as for B4

Tests used:
[1] = target: B2; test: phage binding (relative TU) to B16 melanoma cells post co-culture with B-1 lymphocytes
[2] = target: B2; test: phage binding (relative TU) to B16 melanoma cells post versus pre co-culture with B-1 lymphocytes
[3] = target: the molecule itself; test: conclusion drawn from phage binding, immunocapture, antibody inhibition and shRNA experiments
[4] = target: T1, human MUC18 on human melanoma cell lines; test: phage binding to a panel of 8 human melanoma cell lines
[5] = target: B2; test: phage binding to B16 melanoma cells post versus pre co-culture with B-1 lymphocytes
[6] = target: B2; test: alanine-scanning phage binding to melanoma cells

B1
fold increase in phage binding relative to control insertless phage [1]: ~20 fold | fold increase in phage binding relative to melanoma cells without co-culture with B-1 lymphocytes [2]: ~12 fold

B2
binding result [3]: binds

B3
binding result [4]: binds | fold increase in phage binding relative to baseline binding to melanoma cells pre co-culture with B-1 lymphocytes [5]: 2.5 fold

B4
binding result [6]: no binding

B5
binding result [6]: no binding

B6
binding result [6]: no binding

B7
binding result [6]: no binding
